The results in this text go back to patent US20120270234A1, “DDR2 PROTEIN WITH ACTIVATED KINASE ACTIVITY AND PREPARATION METHOD THEREOF” (KOREA INSTITUTE OF SCIENCE AND TECHNOLOGY, priority 2003, published 2012).

Data set [1] relates to T1, fusion protein of glutathione S transferase and human DDR2 cytosolic tyrosine kinase domain (GST-DDR2 CKD), expressed alone in sf9 cells.
T1 sequence: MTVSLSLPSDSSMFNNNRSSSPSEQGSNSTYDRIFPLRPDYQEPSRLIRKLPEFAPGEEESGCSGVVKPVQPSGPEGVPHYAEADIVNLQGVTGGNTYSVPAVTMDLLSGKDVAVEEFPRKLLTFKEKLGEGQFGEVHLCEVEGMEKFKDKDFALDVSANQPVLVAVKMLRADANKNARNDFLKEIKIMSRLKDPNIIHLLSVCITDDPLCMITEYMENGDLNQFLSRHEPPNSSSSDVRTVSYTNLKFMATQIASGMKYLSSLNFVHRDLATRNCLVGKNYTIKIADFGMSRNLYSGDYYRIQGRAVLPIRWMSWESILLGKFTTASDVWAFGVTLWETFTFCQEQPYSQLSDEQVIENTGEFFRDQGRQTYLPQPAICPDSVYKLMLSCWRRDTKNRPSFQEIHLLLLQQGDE

In another data set the test system is Histone H2B. Nature of the data set: tyrosine kinase activity using Histone H2B as substrate. Format: biochemical. To be noted: reciprocal plotting 1/V vs 1/[ATP]; FIG. 9, FIG. 10. How it is done: The GST-DDR2 CKD was solely expressed or co-expressed with the c-Src protein at the ratio of 1:1 in insect cells; the respective obtained GST-DDR2 CKDs were purified; and the tyrosine kinase activities depending on the concentration of ATP were determined using the same amounts of the tyrosine phosphorylation-induced GST-DDR2 CKD (p-GST-DDR2 CKD by Src) which is obtained by co-expression with the c-Src protein in sf 9 cells and non-phosphorylated GST-DDR2 CKD which is obtained by solely expression in sf9 cells.
All measurements were done in triplicate.
The same amount of each protein as judged by CBB staining was used to measure its in vitro tyrosine kinase activity using histone H2B as a substrate as described in materials and methods and their tyrosine kinase activities were shown by autoradiography. Negative stands for a kinase reaction without kinase protein as a control.
Measurement of DDR2 tyrosine kinase activity towards heterologous peptide substrates was performed using 100 ng of the purified kinase protein in 20 ul of reaction mixture containing 20 mM Tris-HCl, pH 8.0, 5 mM MgCl2, 0.5 mM dithiothreitol, 0.01 mM ATP. […] The spotted filter was washed with 0.1M Tris-HCl (pH 8.0) five times for 10 min each and the radioactivity of each spot was visualized and quantitated using BAS image analyzer (Kodak).

The subject of another data set is shc protein. Nature of the data set: in vitro shc binding assay using HSC T6 cell lysate. The arrangement: species or system human. From the text:
One of the characteristic features of tyrosine phosphorylated cytosolic domain of receptor tyrosine kinase is to recruit the signaling proteins such as shc protein. This complex formation between the cytosolic domain of receptor tyrosine kinase protein and signaling proteins such as shc is important for the cellular transmission of the activated receptor tyrosine kinase signal. It has been observed in HSC T6 liver stellate cells and fibroblast cells that shc, one of signaling protein containing PTB domain binds to activated DDR2 cytosolic domain. The present inventors examined whether the invented DDR2 cytosolic tyrosine kinase domain protein with induced tyrosine phosphorylation for example, by the method of co-expression with c-Src in sf 9 cells or with the mutation of tyrosine 740 to phenylalanine 740 can be used for in vitro shc binding assay. In FIG. 15, the purified GST-DDR2 cytosolic domain from sf 9 cells with and without Src coinfection were used for in vitro shc binding assay. Each protein was subject to autophosphorylation reaction at 30° C. for 15 min, and a mock-autophosphylation reaction as well where gamma-S-ATP was used instead of ATP in the reaction buffer before they were used for in vitro shc binding assay using HSC T6 cell lysate.
The purified GST-DDR2 CKD proteins without or with tyrosine phosphorylation by Src were subject to in vitro shc binding assay after autophosphorylation reaction or a mock-autophosphorylation reaction as described in materials and methods. The bound proteins on the glutathione bead were eluted by boiling in 1× lameli buffer. The presence of shc in the eluate was measured by western blotting using shc antibody and the accumulation of tyrosine phosphorylation at GST-DDR2 CKD proteins resulted from autophosphorylation was shown by western blotting using P-tyro antibody. The presence of an equal amount of GST-DDR2 CKD proteins in each eluate was confirmed by CBB staining. ‘Bead only’ means that no GST-DDR2 CKD protein was applied on glutathione bead as a control.
The same type of experiment was done as FIG. 15 using purified GST-DDR2 CKD phosphorylated by src and its mutant proteins of Y740F and Y736/740/741F.
As a source of shc protein, total lysate of HSC T6 cells was used. For the preparation of the lysate, 2×10^7 HSC T6 cells were harvested and lysed by sonication in 5 ml of lysis buffer consisting of 20 mM Tris-HCl (pH8.0), 0.1M NaCl, 5 mM DTT, 10 mM NaF, […], 0.02% IGE-PAL (Sigma) and a proteinase inhibitor cocktail pellet (Roche). The supernatant was obtained by centrifugation in 15,000 rpm for 10 min at 4° C. and used for the following shc binding assay. Various GST-DDR2 KD proteins bound to glutathione bead were obtained as described above. […]

On to full-length human c-Src tyrosine kinase, for which the “level of tyrosine phosphorylation of GST-DDR2 CKD against the ratio of the two baculoviruses (western blot, phosphorylated tyrosine specific antibody)” value in data set [1] was “The tyrosine phosphorylation at the DDR2 cytosolic tyrosine kinase domain was meaningfully induced, when the DDR2 kinase expression virus and the c-Src protein expression virus are co-expressed even at the ratio of 19:1”.

B1: p-GST-DDR2 CKD by Src: tyrosine phosphorylation-induced GST-DDR2 CKD obtained by co-expression with the c-Src protein in sf 9 cells (protein)
chain: T1 sequence
modifications: left off: a dimerising Fc or GST
notes: tyrosine phosphorylation-induced GST-DDR2 CKD obtained by co-expression with the c-Src protein in sf 9 cells
For B1, in the data set with Histone H2B, the “Km value for ATP compared with the non-phosphorylated control protein” value was “decreased” and the “Vmax compared with the non-phosphorylated control protein” value is on record as “increased”. In addition, the “shc binding after in vitro autophosphorylation reaction” value in the data set on shc protein (autophosphorylation at 30° C. for 15 min, FIG. 15, FIG. 16) is recorded as “significantly increased”. Moreover, the “shc binding before in vitro autophosphorylation” value in the data set on shc protein (mock-autophosphorylation with gamma-S-ATP, FIG. 15) was “some shc binding”.
